# Source: paper PMC5858766, “Identification of aaNAT5b as a spermine N-acetyltransferase in the mosquito, Aedes aegypti” (PLoS ONE, 2018)
# B1: aaNAT5b/SAT (Aedes aegypti) (protein)
# chain: MVAPESIVLRVARLDELEQVREILHRIYYPEEGITISYVHGKSHTLDDERFSLSFVEQGTVVVAEDSAAKKFIGVSIAGPIQPGDPDAMVEEAATTETKKWGDILKLLALLERTADVCGRYGLEKAYHVHILAVDPTYRGHSLGQRLLQFQMDLSKKLGFKAISGDFTSVFSVKLAEKLGMECISQLALGDYRDEKGEKLFEPLDVHQVIKTCVKLL
# notes: about 25 kDa; monomer
# Legend:
# Assay in all cases: purified protein
# Type in all cases: biochemical, Aedes aegypti
# Conditions in all cases: 0.4 mM acetyl-CoA, 50 mM Tris-HCl, 1 mg/mL BSA, room temperature, 5 min; apparent Km
# purified protein [1] = substrate: NN
# purified protein [2] = substrate: NCCCCN
# purified protein [3] = substrate: NCCCCNCCCN
# purified protein [4] = substrate: NCCCNCCCCNCCCN
# purified protein [5] = substrate: N=C(N)NCCCCN
# purified protein [6] = substrate: NCCc1c[nH]cn1
protein,measurement,setting,value
B1,Km,purified protein [1],0.26 ± 0.03 mM
same,kcat,purified protein [1],0.637 ± 0.0283 s⁻¹
same,kcat/Km,purified protein [1],2450 M⁻¹ s⁻¹
same,Km,purified protein [2],0.52 ± 0.11 mM
same,kcat,purified protein [2],0.503 ± 0.0267 s⁻¹
same,kcat/Km,purified protein [2],967 M⁻¹ s⁻¹
same,Km,purified protein [3],0.69 ± 0.12 mM
same,kcat,purified protein [3],0.26 ± 0.0233 s⁻¹
same,kcat/Km,purified protein [3],383 M⁻¹ s⁻¹
same,Km,purified protein [4],0.17 ± 0.04 mM
same,kcat,purified protein [4],3.32 ± 0.2 s⁻¹
same,kcat/Km,purified protein [4],19500 M⁻¹ s⁻¹
same,Km,purified protein [5],0.21 ± 0.05 mM
same,kcat,purified protein [5],2.5 ± 0.183 s⁻¹
same,kcat/Km,purified protein [5],11900 M⁻¹ s⁻¹
same,Km,purified protein [6],0.70 ± 0.13 mM
same,kcat,purified protein [6],0.277 ± 0.0217 s⁻¹
same,kcat/Km,purified protein [6],400 M⁻¹ s⁻¹
